A short description of this data set: label from the status in PepcDB records.
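Further: failed if final PepcDB status was selected cloned or expressed and not failed if soluble or beyond.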

For “MCARPCRPTNLPTRFSMSNSDPSPTLEGNYDLLFRFAFWLFVGAISFSVAGMLLLRLVPSSMAIFGPIYTKLVKTPTWTFMTLLALLPLLMYGPTLGWKKISLIAAWGCIIGGASELIGTTGWLNVGGIALPFGEYEYTQWLGPKIAGHVPYFIPPSWFAMSIVSLDLARRVTTQRVGSLLLGTLFMVLWDVSLDPAMNQAFPFWEYGVDGVFFGMPLSNWAGWAGVTFVILLGYEYIGKGAPIQNEWAPWVYALNCIFPLSICLLRDVYLPALIGGLATLVPFLLLWRYNPDSLKRSVSLFRG”, the protein production entry is given as “failed”.

For the sequence “MCCCVQFLMSFSSVPSAMPAIDPDALESQVAQRLDPHGSDGVQSALSGVVDLEALEERRYGEVLGAIDQRLTQSRYSLLSMVVAGIYFGLLVGLWLVDGSTWSRIALWLAPTLLVAVYGLYATHQTVRQIRHLSETRALLQILMNGPSADG”, the protein production entry is listed as “failed”.

Consider “MCDTFVEFIQLEETVKHDENGKPVKRLRRRETLVHSENVAGRSFWNEHSSLHKDLGHFAKDIGKIEPDYVKSFQFESRLLPLTWVVVRIDGCHFHRFSEVHEFEKPNDEQALKLMNSCAVAVLEEFQDIAFAYGVSDEFSFVLKNKSELYKRQSSKIISAVVSFFTSTYMMRWGDFFPHKKLKYPPSFDGRAVCYPTSDILLDYLAWRQVDCHINNQYNTCFWMLVKSGKSKIQAQDYLKGTQTREKNELLSQQFGIEYNSLPVIFRMGSSVFRLKVLLLLSYSKILLVFHSRFLLL”, for which the protein production entry is “failed”.

In the case of “MCIAIPGKMTAIVDENTATIDMGGICRDVNMALMGGAEESMIGKHFLVHVGYAISEISEEESEETMRLLKIMAGLEEIDSFE”, the protein production result is reported as “not failed”.

“MCIQKVIEDKLSSALKPTFLELVDKSCGCGTSFDAVIVSNNFEDKKLLDRHRLVNTILKEELQNIHAFSMKCHTPLEYDKLKSK”: the protein production entry is “not failed”.

Regarding “MCKNSQYLHLPDEIPQQLMLLWESSDEVWGFKDLDSHYLYANNPFIELLNFPPEFCIKGLLDDELPHPSFAKFSSQFREQELLAAITKKRVSSIEMHYFGREQKLQPYLFDKFPLLNSKKECLGIIF”, the protein production entry was “failed”.

In the case of “MCLGMAGEHMAPNSKHLSLHMPVDFIDALAQAESIDEILKVVATWFMEMFVADRASITFPVNDSHLRVVALEGNRVIDVDAPVPIHGTMVGRVFSRGQAEICDDLAASTDLDCLILASRGLGSCLDAPLRSGRDCYGTINVGRRDRNGFTLADMRKIEALAMWIATLIRVHRQVERLTHLSRTDPLTQIMNRRAFTESFQTRRLEGERRRAEVGTGLGFAVVDIDHFKQINDTYGHDVGDVVLAFVGKMMNEFFRESDCVARFGGEEFCVLMQDVDEGGMQRLLERFRVALGDCVVTHSAGTVSITASIGAVLVKTSVAGIDRAFRSADLALYKAKADGRNRVRIAPSAEQSHAGNPANRLCYPG”, the protein production result was “failed”.

Take “MCPKNASYYGNRAATLMMLGRFREALGDAQQSVRLDDSFVRGHLREGKCHLSLGNAMAACRSFQRALELDHKNAQAQQEFKNANAVMEYEKIAETDFEKRDFRKVVFCMDRALEFAPACHRFKILKAECLAMLGRYPEAQSVASDILRMDSTNADALYVRGLCLYYEDCIEKAVQFFVQALRMAPDHEKACIACRNAKALKAKKEDGNKAFKEGNYKLAYELYTEALGIDPNNIKTNAKLYCNRGTVNSKLRKLDDAIEDCTNAVKLDDTYIKAYLRRAQCYMDTEQYEEAVRDYEKVYQTEKTKEHKQLLKNAQLELKKSKRKDYYKILGVDKNASEDEIKKAYRKRALMHHPDRHSGASAEVQKEEEKKFKEVGEAFTILSDPKKKTRYDSGQDLDEEGMNMGDFDPNNIFKAFFGGPGGFSFEASGPGNFFFQFG”: the protein production entry is reported as “failed”.

For “MCSMASHDLSVFLEEFGATVNLTLPGIVSEKERLLLKLLMEGMSVTEISQYRNRSAKTISHQKKQLYEKLGIQSDITFWRDIFFQYHPQVISGTGNKNNFYIPDNRCHHIVTPEAISLALENHEFKPWIQPVFCAQTGVLTGCEVLVRWEHPQTGIIPPDQFIPLAESSGLIVIMTRQLMKQTADILMPVKHLLPDNFHIGINVSAGCFLAAGFEKECLNLVKKLGNDKIKLVLELTERNPIPVTPEARAIFDSLHQHNITFALDDFGTGYATYRYLQAFPVDFIKIDKSFVQMAGVDEISGHIVDNIVELARKPGLSIVAEGVETQEQADLMIGKGVHFLQGYLYSPPVPGNKFISEWVMKAGG”, the protein production entry was “failed”.

Take “MCWPAPPRPSRRSSNGSPLLWQPGGYDRPPPPCRSLPHVCQNFVVRGCLMTISGGTFDPSICEMEPIATPGAIQPHGALMTARADSGRVAHASVNLGEILGLPAASVLGAPIGEVIGRVNEILLREARRSGSETPETIGSFRRSDGQLLHLHAFQSGDYMCLDIEPVRDEDGRLPPGARQSVIETFSSAMTQVELCELAVHGLQLVLGYDRVMAYRFGADGHGEVIAERRRQDLEPYLGLHYPASDIPQIARALYLRQRVGAIADACYRPVPLLGHPELDDGKPLDLTHSSLRSVSPVHLDYMQNMNTAASLTIGLADGDRLWGMLVCHNTTPRIAGPEWRAAAGMIGQVVSLLLSRLGEVENAAETLARQSTLSTLVERLSTGDTLAAAFVAADQLILDLVGASAAVVRLAGQELHFGRTPPVDAMQKVLDSLGRPSPLEVLSLDDVTLRHPELPELLAAGSGILLLPLTSGDGDLIAWFRPEHVQTITWGGNPAEHGTWNPATQRMRPRASFDAWKETVTGRSLPWTSAERNCARELGEAIAAEMAQRTRAELARLRHYDPLTGLANRSYLQERLAQDGQSAAALLFIDLDRFKAVNDSMGHGVGDGLLIEVARSLVATVRPHDLVVRLGGDEFVVLCHRLDAAGIVSLAERLRQVLEQPFEVAGRKCHISASIGIAMADSIGDLDLVRAADIAMYAAKKNGGNRGELFRPSLYEETTQLVELDNDMRGAIESEQFHLVYQPIFALNPETERLVGFEALLRWDHPLHGALQPGIFIPLAERLGHIHAMGNWVLRRAILQLQAFRSAGPELDLKMNVNVSPLQLARPDFLARLADLLAQVPDLPRHALCLEITETSLSDEAVSEALISIRALGVRIAIDDFGTGFSSLACLRRLPVDVAKLDRAFLGGGHTAAQDHRFFAAVTGLVHAADLKVVQEGIETLDQLALVRAAGADFAQGFHLAAPLSIAAALGLIAASRKE”: the protein production entry is “failed”.

For “MCWVCGENLQAQPYMFRNVVMSDGLSGLLVNAIYKDSEGFIWLGTDNGLDRFDGVKVKHFEFRGVDSGRKKRVNCITETDNKQLWIGNGIGLWRLNRSGSELQRIVPEKIDCAVNALLADGDVLYIGTERGLFIQKDGQLLQVQTDKNMLAACNRIMDLCLNEDKSVLWLATVQGLFSYSLKDGQINSWHFRENVPEADYFRCLTRIGETLYLGTMSQGVVCFDIPKQTFAHTVSLGCDVISDISGDGKETVYIATDGNGVHFLSHKDRKVVRRFFHDVNDKEGIRSNSIYSLLVDDRGAVWVGHFQAGLDYSLYQNGLFRTYAYPPQFNSANLSIRSFVNRGPEKVIGSRDGLFYINEATGIVKSFVKPVLTSDLILTICFYEGEYYIGTYGGGMMVLNPQTLSLKYFTQGDTELFQKGHIFCVKPDNRGNLWIGTSQGLFCYNGQTKQIKNFTSTNSQLPEGNVYEVSFDSTGKGWIATETGMCIYDPASQSLRSNVFPEGFVHKDKVRTIYEDAEHNLYFIREKGSLFTSTLTMDHFRNQSVLSTLPDNSLMSITEDNQGWLWVGCNDGLLRIKEEGEEYDSFTFNDGVPGPTFTNGAAYKDERGLLWFGNTKGLIYVDPKQVDEVRGKVRPIVFTDILANGVSINKSSLKYNQNNLTFCFTDFAYGLPSALLYEYKLEGADSDWKLLTAQSEVSYYGLSSGTYTFCVRIPGNEQSMAIYKVTVQPMIPWWGWVILAISIILIVVLVRYYVRKSAPLVTEVHEISSEEEEEEEKTAEPHPAEEKYKANRMSEAECKELHDRLVAYVEKEKPYINPDLKMGELAAALHTSSHSLSYLLNQYLNQSYYDFINEYRVAQFKKMVEDSDYSRYTLTALAELCGFSSRASFFRSFKKSTGVTPNEYIRSIGGTAKDE”, the protein production result is “failed”.

Turning to “MDAAVTDDFQQILPIEQLRSTHASNDYVERPPAPCKQALSSPSLIVQTHKSDWSLATMPTSLPRSLSQCHQLQPLPQHLSQSSIASSMSHSTTASDQRLLASITPSPSGQSIIRTQPGAGVHPKADGALKGEAEQSAGHPSEHLFICEECGRCKCVPCTAARPLPSCWLCNQRCLCSAESLLDYGTCLCCVKGLFYHCSTDDEDNCADEPCSCGPSSCFVRWAAMSLISLFLPCLCCYLPTRGCLHLCQQGYDSLRRPGCRCKRHTNTVCRKISSGSAPFPKAQEKSV”, the protein production entry is “failed”.

Regarding “MDAKEDVRPTGRGGRGVTAKSHVIVTSNMSVRQFLDVKYTTMNLNLFLSLDPIVDDNQNTLIKKDCSGRVDKDKGIVGDAQVFYTNGFKMSAMVTKHTNRSYLNNPTSIRRKLFDDAGVKGSNGVVRFHSVETSNVVTISVVNDFYNNEMGDDGVTNVTGIIRLARSTNGDSN”, the protein production entry is on record as “failed”.

Consider “MDALLTKFNEDRSLQDENLSQPRTRVRIVDDNLYNKSNPFQLCYKKRDYGSQYYHIYQYRLKTFRERVLKECDKRWDAGFTLNGQLVLKKDKVLDIQGNQPCWCVGSIYCEMKYKPNVLDEVINDTYGAPDLTKSYTDKEGGSDEIMLEDESGRVLLVGDFIRSTPFITGVVVGILGMEAEAGTFQVLDICYPTPLPQNPFPAPIATCPTRGKIALVSGLNLNNTSPDRLLRLEILREFLMGRINNKIDDISLIGRLLICGNSVDFDIKSVNKDELMISLTEFSKFLHNILPSISVDIMPGTNDPSDKSLPQQPFHKSLFDKSLESYFNGSNKEILNLVTNPYEFSYNGVDVLAVSGKNINDICKYVIPSNDNGESENKVEEGESNDFKDDIEHRLDLMECTMKWQNIAPTAPDTLWCYPYTDKDPFVLDKWPHVYIVANQPYFGTRVVEIGGKNIKIISVPEFSSTGMIILLDLETLEAETVKIDI”, for which the protein production entry is “failed”.

On to “MDANEFHWLMDMLESVEVGLVVLDLDFHVQAWNGFMEHHSGITARQIRDKVLFEVFPDIPEAWLTRKVDAVAMLNTRAFTSWEQRPYLFKFRNTRPITGTEEYMFQNLTISPITAPNGEVEKVCLLVYDVTEFASSKRALERANEQLAKLSMTDRLTGLLNRGTWENLVDAEYERFRRYGQATSLVMFDIDHFKPVNDTYGHLAGDEVIRHTADVTRNNIRQSDSAGRYGGEEFGIILPETDAESARVICERIREAIEKSTVSTSAGDIQYTVSMGIAQLTETPENYMQWMQKADEALYKAKESGRNKVVVSLEHHHHHH”, for which the protein production result was “failed”.

For the sequence “MDAPKAGYAFEYLIETLNDSSHKKFFDVSKLGTKYDVLPYSIRVLLEAAVRNCDGFLMKKEDVMNILDWKTKQSNVEVPFFPARVLLQDFTGIPAMVDFAAMREAVKTLGGDPEKVHPACPTDLTVDHSLQIDFSKCAIQNAPNPGGGDLQKAGKLSPLKVQPKKLPCRGQTTCRGSCDSGELGRNSGTFSSQIENTPILCPFHLQPVPEPETVLKNQEVEFGRNRERLQFFKWSSRVFKNVAVIPPGTGMAHQINLEYLSRVVFEEKDLLFPDSVVGTDSHITMVNGLGILGWGVGGIETEAVMLGLPVSLTLPEVVGCELTGSSNPFVTSIDVVLGITKHLRQVGVAGKFVEFFGSGVSQLSIVDRTTIANMCPEYGAILSFFPVDNVTLKHLEHTGFSKAKLESMETYLKAVKLFRNDQNSSGEPEYSQVIQINLNSIVPSVSGPKRPQDRVAVTDMKSDFQACLNEKVGFKGFQIAAEKQKDIVSIHYEGSEYKLSHGSVVIAAVISCTNNCNPSVMLAAGLLAKKAVEAGLRVKPYIRTSLSPGSGMVTHYLSSSGVLPYLSKLGFEIVGYGCSTCVGNTAPLSDAVLNAVKQGDLVTCGILSGNKNFEGRLCDCVRANYLASPPLVVAYAIAGTVNIDFQTEPLGTDPTGKNIYLHDIWPSREEVHRVEEEHVILSMFKALKDKIEMGNKRWNSLEAPDSVLFPWDLKSTYIRCPSFFDKLTKEPIALQAIENAHVLLYLGDSVTTDHISPAGSIARNSAAAKYLTNRGLTPREFNSYGARRGNDAVMTRGTFANIKLFNKFIGKPAPKTIHFPSGQTLDVFEAAELYQKEGIPLIILAGKKYGSGNSRDWAAKGPYLLGVKAVLAESYEKIHKDHLIGIGIAPLQFLPGENADSLGLSGRETFSLTFPEELSPGITLNIQTSTGKVFSVIASFEDDVEITLYKHGGLLNFVARKFS”, the protein production entry is given as “not failed”.

These data come from a protein production outcome set (Wang et al. 2014).
